US8883967B2, “Branched amphipathic oligo-peptides that self-assemble into vesicles” (Kansas State University Research Foundation, priority 2009, dated 2014)
No end group written: not given here.

Assays:
[1] = linear peptides, low and neutral pH; cited from earlier work
[2] = Sedimentation analysis (analytical ultracentrifugation), N-acetyl capped peptides; assay type: physicochemical; details: 1 mM, DDI water, pH 7, 40,000 rpm, 20° C.
Method: In this procedure, N-acetyl capped peptides were prepared using the protocol described in Example 1 above and subjected to analytical ultracentrifugation for sedimentation analysis. Three different samples were prepared from bis(h5)-K-K4 alone, bis(h9)-K-K4 alone, and a 1:1 molar ratio mixture of the two peptides, each with a final peptide concentration of 1 mM dissolved in DDI water and pH adjusted to 7 using a dilute solution of NaOH. For the analyses, 350 μL of each sample was loaded into a Beckman XL-I Analytical Ultracentrifuge cell and spun at 40,000 rpm for 3 hours at 20° C., with data collected using interference optics. The raw data was then processed using DCDT+2.2.1 software to obtain g(s*) distribution. Theoretical distribution (sum of individual peptide distribution) was obtained using OriginLab v. 7.0 software.

[3] = tested on: Human Lens Epithelial (HLE) cells; test: Uptake of 5,6-carboxyfluorescein-loaded peptide vesicles by cells, fluorescence microscopy; assay type: cell-based; details: 12 hours of incubation, 37° C.
Method: Human Lens Epithelial (HLE) cells were obtained from Dr. Dolores Takemoto's lab (Kansas State University). These adherent cells were grown to roughly 80% confluence on coverslips placed in 12 well plates with 1 ml Dulbecco's Modified Eagle Medium (DMEM), Stock solutions of bis(h9)-K-K4 and bis(h5)-K-K4 dissolved in DDI water were mixed together using the protocol described in Example 4 to achieve a final concentration of 0.025 mM of each peptide in the mixture and 600 μL final volume. The sample was then dried by spinning in a speed vacuum for about 3 hours until almost all of the solvent was removed. The dried sample was then rehydrated with a 0.5 mM solution of the fluorescent dye 5,6-carboxyfluorescein (MW=376.3 Da) dissolved in DDI water. The pH of the sample was adjusted to 7.4 using a dilute solution of NaOH. Next, 500 μL of the DMEM was replaced with the peptide vesicle solution loaded with 5,6-carboxyfluorescein. The cells were then allowed to grow at 37° C. under 5% CO2. At 4 hours and 12 hours after incubation with dye-loaded vesicles, the cells were washed twice with phosphate buffered saline (PBS) and fixed using 0.4% paraformaldehyde. The fixed cells were then mounted on a glass slide and pictures were taken using a fluorescence microscope. […]

[4] = Confocal microscopy of vesicles in 5,6-carboxyfluorescein solution; assay type: physicochemical; details: single peptide alone
Method: About 25 μL of the sample was then mounted on a glass slide and covered with a coverslip and sealed. The slides were allowed to sit for 48-72 hours before pictures were taken using a confocal microscope. Upon sitting in the unbuffered 5,6-carboxyfluorescein solution for 48 hours, larger spherical entities than observed with TEM are formed, which can be seen with the light microscope. Specifically, in FIG. 7, peptides bis(h5)-K-K4 and bis(h9)-K-K4 at a 1:1 molar ratio when added to DDI water form larger vesicles on the order of 2-10 μm in diameter. […] The vesicles in this figure are large enough to have fluorescently-labeled peptide aggregates trapped within the vesicles.

## KKKFLIVIKKK [Linear FLIVI flanked by three lysine groups, from earlier studies (US 2009/0105449)]
[1]
  vesicle formation: do not form vesicles

## N-acetyl capped bis(h9)-K-K4: bis(h9)-K-K4 with the N-termini of both hydrophobic tails capped with an acetyl group (chain 1 Ac-FLIVIGSIIKKKKK-NH2; chain 2 Ac-FLIVIGSII; also: branched: chain 2 tail attached to branch lysine K10 of chain 1, linkage amine not given here)
[2]
  apparent S value: ~10 S

## 5,6-carboxyfluorescein [free fluorescent dye]
[3]
  cellular uptake of dye: hardly any uptake of the dye

## KKKFLIVIGSIIKKK [Linear … flanked by three lysine groups, from earlier studies (US 2009/0105449)]
[1]
  vesicle formation: do not form vesicles

## bis(h5)-K-K4: Branched amphipathic peptide: two FLIVI (SEQ ID NO: 4) tails on a branch lysine, KKKK C-terminal carboxyamide
[4]
  ability of the peptide by itself to form vesicle structures: unable to form these structures

## bis(h9)-K-K4: Branched amphipathic peptide: two FLIVIGSII (SEQ ID NO: 3) tails on a branch lysine, KKKK C-terminal carboxyamide
[4]
  ability of the peptide by itself to form vesicle structures: able to form these vesicle-like structures
  stability of vesicle-like structures formed by the peptide alone: somewhat unstable and rapidly fuse to produce the larger structures

## N-acetyl capped bis(h5)-K-K4: bis(h5)-K-K4 with the N-termini of both hydrophobic tails capped with an acetyl group (chain 1 Ac-FLIVIKKKKK-NH2; chain 2 Ac-FLIVI; also: branched: chain 2 tail attached to branch lysine K6 of chain 1, linkage amine not given here)
[2]
  apparent S value: around 6 S
